Experimental data reported in patent publication US20260207759A1, “COMPOSITION OF CD40-BINDING MOLECULE AND PHARMACEUTICAL USE THEREOF” (SUZHOU SUNCADIA BIOPHARMACEUTICALS CO., LTD., priority 2022, published 2026).
Like-named read-outs stand apart in the source and are kept apart here.

Key:
[1] = molecular target: human CD40 on the cell surface (Raji cells, HEK-Blue CD40L cells, primary human B cells and DCs) (human) (UniProt P25942); experiment: cell-based or functional assay
[2] = molecular target: human CD40 on the cell surface (Raji cells, HEK-Blue CD40L cells, primary human B cells and DCs) (human) (UniProt P25942); experiment: flow cytometry (FACS) binding to Raji cells
[3] = molecular target: human CD40 on the cell surface (Raji cells, HEK-Blue CD40L cells, primary human B cells and DCs) (human) (UniProt P25942); experiment: flow cytometry (FACS) binding to Raji cells; remark: listed apart in the source
[4] = molecular target: his-tagged human CD40 recombinant protein (h-CD40-his, Acrobiosystems Cat. #CD0-H5228) (human) (UniProt P25942); experiment: SPR (Biacore), antibody captured on anti-human Fc chip, His-tagged CD40 as analyte, 1:1 model
his-tagged human CD40 recombinant protein (h-CD40-his, Acrobiosystems Cat. #CD0-H5228) (human), sequence (P25942 21-193 limits assumed): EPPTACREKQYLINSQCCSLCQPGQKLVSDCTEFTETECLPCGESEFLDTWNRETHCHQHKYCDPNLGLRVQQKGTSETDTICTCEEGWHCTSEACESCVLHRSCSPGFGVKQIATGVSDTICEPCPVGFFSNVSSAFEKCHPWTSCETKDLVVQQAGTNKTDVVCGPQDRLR

human CD40 on the cell surface (Raji cells, HEK-Blue CD40L cells, primary human B cells and DCs) (human), sequence (P25942 21-277): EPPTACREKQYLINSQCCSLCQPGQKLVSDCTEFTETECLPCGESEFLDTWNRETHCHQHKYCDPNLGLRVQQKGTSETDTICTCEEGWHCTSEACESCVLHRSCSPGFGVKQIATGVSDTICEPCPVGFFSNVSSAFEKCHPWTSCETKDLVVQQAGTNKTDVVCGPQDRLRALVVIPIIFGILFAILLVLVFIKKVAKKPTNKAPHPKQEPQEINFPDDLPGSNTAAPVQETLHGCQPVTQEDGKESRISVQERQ

In the case of “CFZ533 (iscalimab), anti-CD40 antagonistic antibody, positive control”, the B cell activation assay, CD19+CD69+ %, IC50 [1] is reported as 0.14 nM, the B cell activation assay, CD19+CD69+ %, maximum inhibition rate [1] is reported as 95% and the B cell activation assay, CD19+CD69+ MFI, IC50 [1] is reported as 0.07 nM. It also gave a B cell activation assay, CD19+CD69+ MFI, maximum inhibition rate [1] of 110%, an IC50 for the inhibition of CD40 reporter gene cell activity (Experiment 1) [1] of 0.36 nM and an IC50 for the inhibition of CD40 reporter gene cell activity (Experiment 2) [1] of 0.35 nM. The IC50 in DC cell activation assay system, CD80 MFI [1] was 1.19 nM, the IC50 in DC cell activation assay system, CD86 MFI [1] was 1.93 nM and the IC50 in DC cell activation assay system, IL-12/23 p40 [1] was 0.68 nM. It also gave an IC50 in DC cell activation assay system, TNFα [1] of 0.35 nM, a Reporter gene cell activity IC50 (SEAP, HEK-Blue CD40L cells stimulated with CD40L) [1] of 0.272 nM and an EC50 [2] of 2.41 nM. It also gave an EC50 [3] of 1.01 nM, a Kd [4] of 0.205 nM and a koff [4] of 0.000141 s⁻¹. The kon [4] was 688000 M⁻¹ s⁻¹.
